Measured values published in patent US20250145697A1 (WASHINGTON UNIVERSITY, published 2025).
Changes are numbered by the printed parent chain.

Legend:
[1] = molecular target: T1, heat-induced aggregates of ApoE4 (human, UniProt P02649 19-317); assay: ELISA: pellet of heat-aggregated ApoE4 coated at 0.5 ug/ml, antibody titrated, HRP goat anti-mouse IgG, OD650
T1 construct: mature; aggregated state of the recombinant protein; also called ApoE4 incubated at 40 C for 24 hr; heat-treated ApoE4
Procedure: The aggregated ApoE was induced by incubating ApoE at 1 mg/ml concentration at 40° C. for 24 hours. The aggregates then were recovered in the pellet fraction following ultracentrifugation at 186,000 g for 1 hour. For ELISA, the untreated ApoE or heat-induced aggregates of ApoE were coated directly to ELISA plates at 0.5 μg/ml overnight at 4° C. After three washes with PBS, the wells were blocked with 1% BSA-PBS for 1 hour at room temperature with shaking at 500 rpm. The blocked wells were washed once with PBS and subsequently loaded with antibodies at serial concentrations (starting at 100 nM with 5-fold dilutions thereafter). Bound antibodies were detected with HRP-labeled goat anti-mouse IgG (Jackson Immunoresearch) and visualized with TMB substrate at OD₆₅₀ (reaction stopped with BioFX stop solution).

[2] = molecular target: T2, ApoE4 amino acids 24-164, expressed on yeast (human, UniProt P02649 42-182); assay: yeast display of myc-tagged ApoE4 fragment, antibody staining
T2 construct: with myc tag, on yeast cells; range counts on the mature protein; also called helix1 + 2 + 3 + 4
T2 chain: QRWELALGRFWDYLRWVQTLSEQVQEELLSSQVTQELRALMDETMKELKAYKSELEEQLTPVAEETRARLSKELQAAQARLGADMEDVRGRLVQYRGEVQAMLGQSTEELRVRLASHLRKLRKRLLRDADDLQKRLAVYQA
Procedure: (§1) Epitope binding of various anti-ApoE antibodies was evaluated multiple ways. Different sequences of human ApoE were expressed on the surface of yeast by yeast display using different plasmids. Different anti-ApoE antibodies were then assessed to determine binding to the different ApoE sequences by immunofluorescence of the yeast cell surface (Table 4). Because none of the anti-ApoE antibodies tested here recognize murine ApoE, the epitope was further narrowed down by comparison of the murine and human ApoE sequences as shown in Tables 4 and 5. DNA constructs containing different regions of ApoE4 with myc tag were transformed into yeast cells. Yeast cells were incubated with HJ15x to detect binding or anti-myc antibody to detect expression.

[3] = molecular target: T3, ApoE4 amino acids 1-164, expressed on yeast (human, UniProt P02649 19-182); assay: as above
T3 construct: with myc tag, on yeast cells; range counts on the mature protein; also called up to helix 4; not shown: myc tag and yeast surface-display partner
T3 chain: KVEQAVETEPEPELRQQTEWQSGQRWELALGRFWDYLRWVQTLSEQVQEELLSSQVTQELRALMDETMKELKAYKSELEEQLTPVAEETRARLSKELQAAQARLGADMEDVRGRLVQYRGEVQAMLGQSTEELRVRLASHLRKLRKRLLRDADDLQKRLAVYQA
Procedure: as §1

[4] = molecular target: T4, ApoE4 amino acids 1-210, expressed on yeast (human, UniProt P02649 19-228); assay: as above
T4 construct: with myc tag, on yeast cells; range counts on the mature protein; also called N terminal domain; not shown: myc tag and yeast surface-display partner
T4 chain: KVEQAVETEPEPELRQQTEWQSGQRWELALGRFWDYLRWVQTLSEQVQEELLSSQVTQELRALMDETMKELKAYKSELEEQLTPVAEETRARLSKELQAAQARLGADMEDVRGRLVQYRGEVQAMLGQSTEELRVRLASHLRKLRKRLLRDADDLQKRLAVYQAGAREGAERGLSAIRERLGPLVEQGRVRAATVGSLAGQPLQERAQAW
Procedure: as §1

[5] = molecular target: T5, ApoE4 amino acids 54-164, expressed on yeast (human, UniProt P02649 72-182); assay: as above
T5 construct: with myc tag, on yeast cells; expression in yeast printed as Low; range counts on the mature protein; also called helix2 + 3 + 4
T5 chain: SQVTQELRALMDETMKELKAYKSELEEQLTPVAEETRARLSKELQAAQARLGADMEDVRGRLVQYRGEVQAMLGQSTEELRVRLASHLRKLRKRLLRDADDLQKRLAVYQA
Procedure: as §1

[6] = molecular target: T6, recombinant alipidated human ApoE4 (human, UniProt P02649 19-317); assay: direct ELISA on coated recombinant alipidated ApoE (0.5 ug/ml)
T6 construct: mature; full length recombinant protein made in E. coli or bought; biotinylated for SPR; position 112 is counted on the mature protein, not on the precursor entry; also called recApoE; non-lipidated ApoE4
Outline: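 Antibody dose-response curves were built by HRP-conjugated goat anti-mouse IgG detection of anti-ApoE antibodies bound to blocked plates. The coat was full-length alipidated recombinant ApoE at 0.5 μg/ml, applied overnight, either E. coli-expressed and purified or commercially sourced.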

[7] = molecular target: T6, recombinant alipidated human ApoE4; assay: SPR (Biacore T200), biotinylated ApoE4 captured on anti-biotin mAb chip, antibody injected, 1:1 fit
Outline: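 Biotinylated recombinant alipidated human ApoE4 (E. coli-expressed or commercial) captured on immobilized anti-biotin mAb; antibody serial dilutions injected at 30 μl/min, e.g. 3-min association, 10-min dissociation. Responses reference-subtracted against irrelevant-IgG flow cell; kinetics from 1:1 Langmuir simultaneous fit of Kon and Koff.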

T6 sequence (P02649 19-317 C130R): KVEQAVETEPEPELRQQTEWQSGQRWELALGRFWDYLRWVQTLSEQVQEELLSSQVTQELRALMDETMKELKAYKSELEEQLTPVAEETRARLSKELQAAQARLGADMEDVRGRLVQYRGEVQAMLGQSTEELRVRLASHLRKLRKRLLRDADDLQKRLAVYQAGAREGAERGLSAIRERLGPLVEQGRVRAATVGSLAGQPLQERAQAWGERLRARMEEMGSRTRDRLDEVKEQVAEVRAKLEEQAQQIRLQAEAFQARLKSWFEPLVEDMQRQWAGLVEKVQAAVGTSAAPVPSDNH

B1: HJ154 (antibody, V domains shown)
VH: QVQLQQPGTEFVMSGASVMLSCKASGYIFTNYWLHWVKQRPGHGLEWIGEIDPSDSYSICNDNFKGKSTLTVDKSSSTAYMQLSSLTSEDSAVYYCAGSLGRVGLAYWGQGTLVTVST
VL: QIVLTQSPAIMSASPGEKVTMSCSASSSVSNMYWYQQKPGSSPKSWIYRTSNLASGVPARFSGSGSGTSYSLTISNMEAEDAATYYCQHYQNYPLTFGAGTKLELKR
notes: murine monoclonal antibody from hybridoma; also called HJ154B (biotinylated)
In the case of B1, the “EC50 (read off the curve)” value [1] is reported as ~0.3 nM, the binding result [2] is reported as “binds” and the binding result [3] is reported as “binds”. For the same binder, the binding result [4] was “binds”, the binding result [5] was “binds” and the EC50 [6] was 0.26 nM. The Kd [7] was 0.675 nM, the koff [7] was 0.000348 s⁻¹ and the kon [7] was 516000 M⁻¹ s⁻¹.

B2: HJ151 (antibody, V domains shown)
VH: QVQLQQSGAELVRPGASVTLSCKASGYTFTDYEMHWVKQTPVHGLEWIGVIDPEKGGTAYNQKFKGKAILTADKSSSTAYMDLRSLTSEDSAVYYCLKDSWGQGTTLTVSS
VL: DVLMTQTPLSLPVSLGDQASISCRSSQTIVHSDGNTYLEWYLQKPGQSPKLLIYKVSNRFSGVPDRFSGSGSGTYFTLKISRVEAEDLGVYYCFQGSHVPCTFGGGTKLEIKR
notes: murine monoclonal antibody from hybridoma; also called HJ151B (biotinylated)
B2 was tested, and the “EC50 (read off the curve)” value [1] was ~0.3 nM, the binding result [2] was “binds” and the binding result [3] was “binds”. For the same binder, the binding result [4] was “binds”, the binding result [5] was “binds” and the EC50 [6] was 0.44 nM. The Kd [7] was 60.2 nM, the koff [7] was 0.00119 s⁻¹ and the kon [7] was 19700 M⁻¹ s⁻¹.

B3: HJ156 (antibody, V domains shown)
VH: QVQLQQSGPELVKPGASVKISCKASGYIFTDYYINWVKRRPGQGLEWIGWIFPGSGVSYYNEQFKGKATLTVDKPSNTAYIFLSRLTSEDSAVYFCARYYSSSPFAYWGQGTLVTVSA
VL: B2 VL with T28N, V30I, D33N, Y41F, K44R, K50E, Y75D, C101Y
notes: murine monoclonal antibody from hybridoma; also called HJ156B (biotinylated)
For B3, the “EC50 (read off the curve)” value [1] was ~0.07 nM, the binding result [2] was “binds” and the binding result [3] was “binds”. For the same binder, the binding result [4] was “binds”, the binding result [5] was “binds” and the EC50 [6] was 0.62 nM. For the same binder, the Kd [7] was 216 nM, the koff [7] was 0.00449 s⁻¹ and the kon [7] was 20700 M⁻¹ s⁻¹.
